Measured values: PMC3858558 (2013)

What was measured:
[D-Trp6]LHRH [1] = biological target: T1, [D-Trp6]LHRH (Homo sapiens, UniProt P01148, D-Trp6 analog, 125I-labeled radioligand); assay: radioligand competition assay, tumor membranes (patient 15)
[D-Trp6]LHRH [2] = biological target: T1, [D-Trp6]LHRH; assay: radioligand competition assay, tumor membranes (patient 35)
[D-Trp6]LHRH [3] = biological target: T1, [D-Trp6]LHRH; assay: radioligand competition assay, tumor membranes (patient 12)
[D-Trp6]LHRH [4] = biological target: T1, [D-Trp6]LHRH; assay: radioligand competition assay, tumor membranes (patient 6)
[D-Trp6]LHRH [5] = biological target: T1, [D-Trp6]LHRH; assay: radioligand competition assay, tumor membranes (mean of 7 specimens)
[D-Trp6]LHRH [6] = biological target: T1, [D-Trp6]LHRH; assay: radioligand competition assay, tumor membranes (patient 9)
[D-Trp6]LHRH [7] = biological target: T1, [D-Trp6]LHRH; assay: radioligand competition assay, tumor membranes (patient 4)
[D-Trp6]LHRH [8] = biological target: T1, [D-Trp6]LHRH; assay: radioligand competition assay, tumor membranes (patient 30)

B1: type I LHRH receptor (protein)
chain: MANSASPEQNQNHCSAINNSIPLMQGNLPTLTLSGKIRVTVTFFLFLLSATFNASFLLKLQKWTQKKEKGKKLSRMKLLLKHLTLANLLETLIVMPLDGMWNITVQWYAGELLCKVLSYLKLFSMYAPAFMMVVISLDRSLAITRPLALKSNSKVGQSMVGLAWILSSVFAGPQLYIFRMIHLADSSGQTKVFSQCVTHCSFSQWWHQAFYNFFTFSCLFIIPLFIMLICNAKIIFTLTRVLHQDPHELQLNQSKNNIPRARLKTLKMTVAFATSFTVCWTPYYVLGIWYWFDPEMLNRLSDPVNHFFFLFAFLNPCFDPLIYGYFSL
Kd ([D-Trp6]LHRH [1]): 4.81 nM
Kd ([D-Trp6]LHRH [2]): 2.18 nM
Kd ([D-Trp6]LHRH [3]): 6.03 nM
Kd ([D-Trp6]LHRH [4]): 1.37 nM
Kd ([D-Trp6]LHRH [5]): 3.69 nM
Kd ([D-Trp6]LHRH [6]): 3.73 nM
Kd ([D-Trp6]LHRH [7]): 1.35 nM
Kd ([D-Trp6]LHRH [8]): 6.36 nM
